Experimental findings from US20230024461A1, “METHODS FOR DUAL DNA/PROTEIN TAGGING OF OPEN CHROMATIN” (Beth Israel Deaconess Medical Center, Inc., priority 2019, published 2023) are described below.

The test deals with HT1080 cells. Nature of the test: Co-immunofluorescence/ATAC-see analysis. It counts as cell-based, human. The protocol: Co-immunofluorescence/ATAC-see analysis. ATAC-see was performed similarly as previously described with slight modifications (Chen et al., Nat. Methods 13:1013-1020, 2016). Enzyme and transposon DNA were mixed at a 1:1.25 enzyme:MEDS-A/B-AF647 molar ratio and incubated at room temperature for 1 hour. Adherent cells were grown on glass coverslips (Fisher Scientific, 12-540A) until 80-90% confluent, washed with 1×PBS, fixed with 1% formaldehyde (Electron Microscopy Services) in 1×PBS for 10 minutes, and washed twice with ice-cold 1×PBS. Suspension cells were washed and resuspended with 1×PBS. 50,000 cells were added to poly-lysine slides and incubated at room temperature for 1 hour in a humidified chamber. An equal volume of 2% formaldehyde was added and incubated for 10 minutes, whereupon slides were washed twice with ice-cold 1×PBS. Immobilized cells were lysed by incubation with LB1 for 3 minutes followed by LB2 for 10 minutes at room temperature. Cells were then subject to tagmentation (20% dimethylformamide, 10 mM MgCl2, 20 mM Tris-HCl pH 7.5, 33% 1×PBS, 0.01% digitonin, 0.1% Tween-20, and either 80 pmol enzyme equivalent of enzyme:DNA complex in a total volume of 100 μL for adherent cells or 10 pmol enzyme equivalent of enzyme:DNA complex in a total volume of 50 μL for suspension cells) for 30 minutes at 37° C. in a humidified chamber. Subsequently, cells were washed with 50 mM EDTA and 0.01% SDS in 1×PBS three times for 15 minute each at 55° C., lysed for 10 minutes with 0.5% Triton X-100 in 1×PBS at room temperature, and blocked with 1% BSA and 10% goat serum in PBS-T for 1 hour in a humidified chamber. Primary antibody was added to slides in 1% BSA/PBS-T and incubated at 4° C. overnight; slides were then washed and subjected to secondary antibody staining for 1 hour. Slides were washed with PBS-T three times for 15 minutes each, stained with DAPI (Sigma, 1 μg/mL) for 1 minute, washed with PBS for 10 minutes, and mounted with Fluorescence Mounting Medium (Dako). Confocal microscopy images were taken with an LSM 880 Axio Imager 2 at 63× magnification (Zeiss). Images were processed with Fiji/ImageJ v2.0.0.
Primary antibodies used were anti-RNA polymerase II CTD repeat YSPTSPS (phospho S2) (rabbit, Abcam ab5095, 1:500), anti-H3K27Ac (rabbit, Abcam ab4729, 1:500), anti-H3K9me3 (rabbit, Abcam ab8898, 1:500), anti-CCDCl2 (rabbit, Atlas Antibodies HPA060530, 1:200), anti-SNRPA (mouse, 3F9-1F7, Sigma-Aldrich WH0006626M1, 1:100). […]
Quantitative image analyses were performed with CellProfiler v3.1.5. […] Pearson correlation coefficients were determined by comparing ATAC-see pixel intensities with corresponding immunofluorescence intensity values within each ROI to assess the nucleus-to-nucleus variation in colocalization. […]

Entries after “also recorded” stand apart in the source; their conditions may differ.

B1: TP3: Tn5 transposase-AEAAAKEAAAKA linker-APEX2 peroxidase fusion, C-terminal FLAG; amino acid SEQ ID NO: 27 (protein)
chain: MITSALHRAADWAKSVFSSAALGDPRRTARLVNVAAQLAKYSGKSITISSEGSKAMQEGAYRFIRNPNVSAEAIRKAGAMQTVKLAQEFPELLAIEDTTSLSYRHQVAEELGKLGSIQDKSRGWWVHSVLLLEATTFRTVGLLHQEWWMRPDDPADADEKESGKWLAAAATSRLRMGSMMSNVIAVCDREADIHAYLQDKLAHNERFVVRSKHPRKDVESGLYLYDHLKNQPELGGYQISIPQKGVVDKRGKRKNRPARKASLSLRSGRITLKQGNITLNAVLAEEINPPKGETPLKWLLLTSEPVESLAQALRVIDIYTHRWRIEEFHKAWKTGAGAERQRMEEPDNLERMVSILSFVAVRLLQLRESFTPPQALRAQGLLKEAEHVESQSAETVLTPDECQLLGYLDKGKRKRKEKAGSLQWAYMAIARLGGFMDSKRTGIASWGALWEGWEALQSKLDGFLAAKDLMAQGIKIAEAAAKEAAAKAGKSYPTVSADYQDAVEKAKKKLRGFIAEKRCAPLMLRLAFHSAGTFDKGTKTGGPFGTIKHPAELAHSANNGLDIAVRLLEPLKAEFPILSYADFYQLAGVVAVEVTGGPKVPFHPGREDKPEPPPEGRLPDPTKGSDHLRDVFGKAMGLTDQDIVALSGGHTIGAAHKERSGFEGPWTSNPLIFDNSYFTELLSGEKEGLLQLPSDKALLSDPVFRPLVDKYAADEDAFFADYAEAHQKLSELGFADADYKDDDDK
modifications: C-terminal FLAG
Regarding B1, for the setting “marker of transcriptionally inactive chromatin”, the “ATAC-see correlation with H3K9me3 immunofluorescence” value is “poorly correlating; also recorded: similarly poor correlations”. In addition, the “ATAC-see correlation with H3K27Ac and RNAPII S2P immunofluorescence signal” value (markers of transcriptionally active chromatin) is “strongly correlating; also recorded: similarly positive correlations”.
